Experimental findings from publication PMC6009577 are described below.

The assay addresses G4-P351A fragment of DGCR8 (proline at 351 to alanine) (human) (UniProt Q8WYQ5). The assay is described as follows: SEC.

In the case of “G4-P351A fragment of DGCR8 (proline at 351 to alanine) (from UniProt Q8WYQ5 1-773) (domain or fragment)”, the stoichiometry N worked out at 2.

For orientation: stoichiometry N means the number of molecules, sites or subunits per partner or assembly.
